For the series, the system named is human recombinant CXCL10 (1-77).
Sequence of human recombinant CXCL10 (1-77) (chain, as listed by the source): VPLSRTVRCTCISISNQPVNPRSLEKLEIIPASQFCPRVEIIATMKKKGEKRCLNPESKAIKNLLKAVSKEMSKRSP

With active MMP9, the “cleavage of CXCL10 (SELDI-TOF mass analysis)” value is listed as “MMP9 cleaved 9 amino acids from CXCL10”.
Take recombinant DPP4: the “molecular weight difference after in vitro digestion (SELDI-TOF mass spectrometry)” value is “The molecular weight difference (red number) between CXCL10 (1-77) and CXCL10 (3-77) is 0.2 KDa, corresponding to a 2 amino-acid difference”.
active MMP2: the “cleavage of CXCL10 (SELDI-TOF mass analysis)” value is reported as “MMP2 did not alter the mass of CXCL10”.

(Values after patent US20100040577.)
